Assay results from US20220340666A1 (NEW YORK UNIVERSITY, published 2022).
Changes are numbered by the printed parent chain. Where two headings read alike, the source gives them in different places. Values belong to the binder of their own block, whether it stands above or below them.

How the values were obtained:
[1] = molecular target: T1, human Galectin-9 CRD2 (residues 218-355), biotinylated (human, UniProt O00182 218-355, biotinylated in vitro with BirA (Avitag)); assay: phage ELISA, phage-displayed Fab; also on CRD2 pre-incubated with G9.2-17 IgG
T1 construct: also called wild type human Galectin-9 CRD2; not shown: hexahistidine tag, Avitag and TEV cleavage site upstream of the cloned gene (pHBT vector)
T1 sequence (O00182 218-355 limits assumed): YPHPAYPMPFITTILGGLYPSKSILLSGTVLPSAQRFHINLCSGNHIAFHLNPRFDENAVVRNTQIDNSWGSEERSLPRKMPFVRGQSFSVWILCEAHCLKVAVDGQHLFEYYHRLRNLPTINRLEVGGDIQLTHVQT
Description: (§1) FIG. 13 is a graph showing a binding characterization of G9.2 Fab clone for wild-type Galectin-9 CRD2 or the […] mutant using phage ELISA. Binding of Fab clones to human Galectin-9 CRD2 assayed using phage ELISA.
(§2) Potential additional epitopes were explored using additional clones that bind to Galectin-9 CRD2. A phage display library selection using a modified scheme so as to enrich clones that bind to an epitope that is distinct from that of G9.2-17 was performed.

[2] = molecular target: T2, human Galectin-9 CRD2 W309K mutant, biotinylated (human, UniProt O00182 218-355, biotinylated (Avitag)); assay: phage ELISA, phage-displayed Fab
T2 construct: also called W309K Galectin-9 CRD2 mutant; not shown: tags of the pHBT vector as for wild-type CRD2
T2 sequence (O00182 218-355 W309K): as the sequence (O00182 218-355 limits assumed) above, with W92K counted along it
Description: as §1, §2

[3] = molecular target: T3, human Galectin-9 CRD1 (residues 1-148), biotinylated (human, UniProt O00182 1-148, biotinylated in vitro with BirA (Avitag)); assay: bead-based binding assay, flow cytometry
T3 construct: Made as GST fusion, GST cleaved off with thrombin, gel filtered, biotinylated; not shown: Avitag upstream of the cloned gene (pGEX vector), left after thrombin cleavage from GST
T3 sequence (O00182 1-148): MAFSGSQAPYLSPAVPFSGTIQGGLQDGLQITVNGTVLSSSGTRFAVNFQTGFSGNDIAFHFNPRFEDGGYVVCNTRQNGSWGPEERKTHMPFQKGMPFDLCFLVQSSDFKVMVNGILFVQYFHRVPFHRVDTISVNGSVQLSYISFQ
Description: (§3) The affinities of the antibodies were assessed using a bead-based assay as previously described (Nishikori et al., J Mol Biol, 2012, 424, 391-399) and surface plasmon resonance (SPR). In the bead-based assay, a biotinylated protein (either a Galectin-9 sample or a Fab sample) was immobilized on streptavidin-coated Dynabeads M280 via the biotin-streptavidin interaction. After blocking the excess biotin-binding sites on the beads using unconjugated biotin, binding titration was performed by incubating the second component (i.e., Fab for immobilized Galectin-9 or vice versa), followed by quantification using a dye-labeled neutravidin (ThermoFisher) and flow cytometry analysis. In experiments where the second component is an IgG, a dye-labeled anti-human IgG or anti-mouse IgG antibody was used for detection.

[4] = molecular target: T3, human Galectin-9 CRD1 (residues 1-148), …; assay: bead-based binding assay, flow cytometry; remark: listed apart in the source
Description: as §3

[5] = molecular target: T3, human Galectin-9 CRD1 (residues 1-148), …; assay: bead-based binding assay, flow cytometry; remark: listed apart in the source
Description: as §3

[6] = molecular target: T1, human Galectin-9 CRD2 (residues …); assay: bead-based binding assay
[7] = molecular target: T1, human Galectin-9 CRD2 (residues …); assay: phage ELISA, phage-displayed Fab
Description: as §1, §2

[8] = molecular target: T3, human Galectin-9 CRD1 (residues 1-148), …; assay: bead-based binding assay, purified Fab (FIG. 5)
Description: as §3

[9] = molecular target: T1, human Galectin-9 CRD2 (residues …); assay: SPR, Fab over CRD2 on Avicap chip (OneStep)
Description: FIG. 12 contains charts showing surface plasmon resonance analyses of Fab G9.2-17 (top) and Fab G9.2.17mut6 (bottom) binding to the CRD2 of human (left) and mouse (right) Galectin-9. Human or mouse Galectin-9 CRD2 was immobilized on an Avicap chip preloaded with neutravidin on a Pall ForteBio Pioneer instrument. Fab samples were then flowed using the OneStep method. The binding and dissociation phases of the experiments are marked in the top panels.
In SPR experiments, a biotinylated Galectin-9 sample was immobilized on an Avicap chip (Pall ForteBio) that had been preloaded with neutravidin (ThermoFisher). Antibody samples were flowed using the OneStep method on a Pioneer SPR instrument (Pall ForteBio) and the results are provided in FIG. 6.

binding result [1]: binds
binding result [2]: binds
B1: G9.2-26 Fab (Fab, V domains shown)
VH: EVQLVESGGGLVQPGGSLRLSCAASGFTVSSSSIHWVRQAPGKGLEWVAYISSYSGSTYYADSVKGRFTISADTSKNTAYLQMNSLRAEDTAVYYCARSSALYWMDFSYSALDYWGQGTLVTVSS
VL: DIQMTQSPSSLSASVGDRVTITCRASQSVSSAVAWYQQKPGKAPKLLIYSASSLYSGVPSRFSGSRSGTDFTLTISSLQPEDFATYYCQQGGWYYGPITFGQGTKVEIKR

Kd [3]: 0.45 nM
Kd [4]: 2.13 nM
B2: G9.1-8 Fab (Fab, V domains shown)
VH: EVQLVESGGGLVQPGGSLRLSCAASGFTVSSSSIHWVRQAPGKGLEWVAYIYPYSGYTSYADSVKGRFTISADTSKNTAYLQMNSLRAEDTAVYYCARYSTYSWGGIGKWVWGMDYWGQGTLVTVSS
VL: B1 VL with G91S, G92Y, W93Y, Y94D, Y95S, G96N
notes: Avitag at the C-terminus of the heavy chain, biotinylated when required; also called G9.1-8 WT Fab

Kd [3]: 2.4 nM
Kd [5]: 0.63 nM
B3: G9.1-8 WT mIgG1 (antibody, V domains shown)
VH: B2 VH
VL: B1 VL with G91S, G92Y, W93Y, Y94D, Y95S, G96N

binding result [6]: no binding
Kd [5]: 0.32 nM
B4: G9.1-8m12 mIgG2a (antibody, V domains shown)
VH: EVQLVESGGGLVQPGGSLRLSCAASGFTVSSSSIHWVRQAPGKGLEWVAYIYPYSSSSSYADSVKGRFTISADTSKNTAYLQMNSLRAEDTAVYYCARYSTYSSSKWVWGMDYWGQGTLVTVSS
VL: B1 VL with G91S, G92Y, W93Y, Y94D, Y95S, G96N
notes: also called G9.1-8mut12

binding result [6]: no binding
Kd [5]: 0.3 nM
B5: G9.1-8m13 mIgG2a (antibody, V domains shown)
VH: EVQLVESGGGLVQPGGSLRLSCAASGFTVSSSSIHWVRQAPGKGLEWVAYIYPYSSSSSYADSVKGRFTISADTSKNTAYLQMNSLRAEDTAVYYCARYSTYSSKWVWGMDYWGQGTLVTVSS
VL: B1 VL with G91S, G92Y, W93Y, Y94D, Y95S, G96N
notes: also called G9.1-8mut13

binding result [6]: no binding
Kd [5]: 2.01 nM
B6: G9.1-8m14 mIgG2a (antibody, V domains shown)
VH: EVQLVESGGGLVQPGGSLRLSCAASGFTVSSSSIHWVRQAPGKGLEWVAYIYPYSSSSSYADSVKGRFTISADTSKNTAYLQMNSLRAEDTAVYYCARYSTYKWVWGMDYWGQGTLVTVSS
VL: B1 VL with G91S, G92Y, W93Y, Y94D, Y95S, G96N
notes: also called G9.1-8mut14

binding result [7]: binds
B7: G9.2-15 Fab (Fab, V domains shown)
VH: EVQLVESGGGLVQPGGSLRLSCAASGFTVSSSSIHWVRQAPGKGLEWVASIYSSSGYTSYADSVKGRFTISADTSKNTAYLQMNSLRAEDTAVYYCARNVENYPYWAWPWGYYGAIDYWGQGTLVTVSS
VL: DIQMTQSPSSLSASVGDRVTITCRASQSVSSAVAWYQQKPGKAPKLLIYSASSLYSGVPSRFSGSRSGTDFTLTISSLQPEDFATYYCQQSSWGLITFGQGTKVEIKR
notes: Avitag at the C-terminus of the heavy chain, biotinylated when required; also called Fab G9.2-15

binding result [8]: binds
B8: G9.1-6 Fab (Fab, V domains shown)
VH: EVQLVESGGGLVQPGGSLRLSCAASGFTLSSSSIHWVRQAPGKGLEWVASIYSSYGSTSYADSVKGRFTISADTSKNTAYLQMNSLRAEDTAVYYCARSSHWYMYWSYWGWYIGMDYWGQGTLVTVSS
VL: B7 VL with S91Y, S92H, W93S, G94S, I96F
notes: Avitag at the C-terminus of the heavy chain, biotinylated when required

binding result [1]: binds
binding result [2]: binds
B9: G9.2-24 Fab (Fab, V domains shown)
VH: EVQLVESGGGLVQPGGSLRLSCAASGFTVYSSSIHWVRQAPGKGLEWVASIYSSYGYTSYADSVKGRFTISADTSKNTAYLQMNSLRAEDTAVYYCARSYSSETHYGWAMDYWGQGTLVTVSS
VL: B7 VL with S91W, W93Q, G94S, L95P, I96V

binding result [7]: binds
B10: G9.2-17 Fab (Fab, V domains shown)
VH: EVQLVESGGGLVQPGGSLRLSCAASGFTVSSSSIHWVRQAPGKGLEWVAYISSSSGYTYYADSVKGRFTISADTSKNTAYLQMNSLRAEDTAVYYCARYWSYPSWWPYRGMDYWGQGTLVTVSS
VL: B7 VL with W93T, G94D, L95P
notes: Avitag at the C-terminus of the heavy chain, biotinylated when required; also called Fab G9.2-17

binding result [9]: binds
B11: G9.2-17mut6 Fab (Fab, V domains shown)
VH: B10 VH with W106S
VL: B7 VL with W93T, G94D, L95P
notes: Purified Fab; point mutant of G9.2-17 in CDR-H3; also called Fab G9.2-17mut6; G9.2-17m6

binding result [1]: binds
binding result [2]: binds
B12: G9.2-25 Fab (Fab, V domains shown)
VH: EVQLVESGGGLVQPGGSLRLSCAASGFTLSSSSIHWVRQAPGKGLEWVASIYSSYGSTSYADSVKGRFTISADTSKNTAYLQMNSLRAEDTAVYYCARQYYTYFEWYMGWGYALDYWGQGTLVTVSS
VL: DIQMTQSPSSLSASVGDRVTITCRASQSVSSAVAWYQQKPGKAPKLLIYSASSLYSGVPSRFSGSRSGTDFTLTISSLQPEDFATYYCQQSYVYYPFTFGQGTKVEIKR
